Results taken from patent US8871909B2, “Antibodies inhibiting c-Met dimerization and uses thereof” (Pierre Fabre Medicament, priority 2007, dated 2014).

B1: 11E1: murine anti-c-Met monoclonal antibody, IgG1 kappa; heavy chain SEQ ID No. 62, light chain SEQ ID No. 63 (antibody, V domains shown)
VH: QVQLQQSGAELAKPGASVKMSCKASGYTFTSYWMNWVKQRPGQGLEWIGYINPTTGSTDYNQKLKDKATLTADKSSNTAYMQLSSLTSEDSAVYYCAIGGYGSWFAYWGQGTLVTVSA
VL: QIVLTQSPAIMSASPGEKVTLTCSASSSVSSTYLYWYQQKPGSSPKLWIYTTSILASGVPARFSGSGSGTSYSLTISSMETEDAASYFCHQWSSYPFTFGSGTKLDIK
modifications: mus musculus
B2: 224G11: murine anti-c-Met monoclonal antibody, IgG1 kappa; heavy chain SEQ ID No. 18, light chain SEQ ID No. 21 (antibody, V domains shown)
VH: EVQLQQSGPELVKPGASVKISCKTSGYIFTAYTMHWVRQSLGESLDWIGGIKPNNGLANYNQKFKGKATLTVDKSSSTAYMDLRSLTSEDSAVYYCARSEITTEFDYWGQGTALTVSS
VL: DIVLTQSPASLAVSLGQRATISCRASESVDSYANSFMHWYQQKPGQPPKLLIYRASNLESGIPARFSGSGSRTDFTLTINPVEADDVATYYCQQSKEDPLTFGSGTKLEMK
modifications: mus musculus

Key:
[1] = biological target: T1, c-Met (Homo sapiens, UniProt P08581); test: Phospho c-Met ELISA assay on A549 cells; assay type: cell-based; conditions: purified Mabs; for IC50, c-Met phosphorylation: 0.0015 to 30 μg/ml (0.01-200 nM); for agonist effect on c-Met phosphorylation, added alone / antagonist effect on c-Met phosphorylation in presence of HGF: A549, 30 μg/ml (200 nM), Example 18
T1 construct: endogenous in cells; host or cells: A549
T1 sequence (P08581 25-1390): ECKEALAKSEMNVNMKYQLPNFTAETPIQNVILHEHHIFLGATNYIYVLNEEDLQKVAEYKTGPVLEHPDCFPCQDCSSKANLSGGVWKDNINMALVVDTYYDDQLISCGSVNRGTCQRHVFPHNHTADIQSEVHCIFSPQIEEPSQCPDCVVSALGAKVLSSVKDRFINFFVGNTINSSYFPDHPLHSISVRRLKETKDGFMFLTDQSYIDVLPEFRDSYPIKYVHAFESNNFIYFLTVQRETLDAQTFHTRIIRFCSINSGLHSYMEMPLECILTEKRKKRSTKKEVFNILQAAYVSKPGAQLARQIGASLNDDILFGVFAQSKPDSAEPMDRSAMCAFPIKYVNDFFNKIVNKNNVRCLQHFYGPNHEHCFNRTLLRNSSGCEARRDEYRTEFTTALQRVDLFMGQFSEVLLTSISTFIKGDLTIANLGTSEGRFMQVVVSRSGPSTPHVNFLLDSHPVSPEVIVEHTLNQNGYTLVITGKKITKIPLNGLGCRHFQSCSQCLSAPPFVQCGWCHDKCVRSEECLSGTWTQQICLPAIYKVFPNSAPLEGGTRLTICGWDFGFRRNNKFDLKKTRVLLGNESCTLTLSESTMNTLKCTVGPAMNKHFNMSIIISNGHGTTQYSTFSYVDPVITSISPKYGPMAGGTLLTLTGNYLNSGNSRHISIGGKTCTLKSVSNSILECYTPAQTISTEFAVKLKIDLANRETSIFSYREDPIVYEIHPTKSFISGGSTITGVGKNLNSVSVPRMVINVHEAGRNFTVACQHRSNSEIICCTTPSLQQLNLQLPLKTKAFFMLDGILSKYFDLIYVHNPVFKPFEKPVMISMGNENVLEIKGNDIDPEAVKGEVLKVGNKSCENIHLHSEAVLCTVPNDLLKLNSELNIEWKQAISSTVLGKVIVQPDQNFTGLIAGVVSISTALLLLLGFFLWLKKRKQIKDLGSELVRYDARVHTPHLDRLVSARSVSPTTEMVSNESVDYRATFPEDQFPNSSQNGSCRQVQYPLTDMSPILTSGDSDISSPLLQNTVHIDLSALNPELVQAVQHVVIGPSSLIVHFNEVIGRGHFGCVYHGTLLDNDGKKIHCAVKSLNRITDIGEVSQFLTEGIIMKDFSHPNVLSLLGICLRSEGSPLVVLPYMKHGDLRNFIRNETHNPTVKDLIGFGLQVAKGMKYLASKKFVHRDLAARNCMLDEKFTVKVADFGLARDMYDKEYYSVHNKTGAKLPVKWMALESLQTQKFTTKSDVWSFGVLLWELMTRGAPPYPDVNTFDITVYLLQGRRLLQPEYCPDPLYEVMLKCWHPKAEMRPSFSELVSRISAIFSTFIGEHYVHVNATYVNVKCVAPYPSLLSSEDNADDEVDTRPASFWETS
Method: To determine the activity of anti-c-Met antibodies on c-Met phosphorylation a phospho c-Met ELISA assay was set-up. Briefly 500 000 A549 cells were seeded in each well of 6-well plates in F12K medium+10% FCS. 16 hours before HGF addition (100 ng/ml), cells were starved and each antibody to be tested was added at a final concentration of 30 μg/ml 15 minutes before ligand stimulation. 15 minutes after HGF addition, cold lysis buffer was added, cells were scraped and cell lysates collected and centrifuged at 13 000 rpm for 10 min at 4° C. Supernatants were quantified with a BCA kit (Pierce) and stored at −20° C. For ELISA assay, a goat anti-c-Met antibody (R&D ref. AF276) was used as a capture antibody (coating overnight at 4° C.) and after a saturation step (1 h at RT) with a TBS-BSA 5% buffer, […] of protein from the different cell lysates was added to each well of the 96-well plate. After a 90 minute-incubation time at RT, plates were washed four times and an anti-phospho-c-Met antibody (Rabbit anti-pY1230-1234-1235 c-Met) was added. After an additional 1 hour incubation time and 4 washes an anti-rabbit-HRP (Biosource) was added for 1 hour at RT and then Luminol substrate was added before evaluation the luminescence with a Mithras device. […] As described in the various examples presented in this patent, this weak basal effect has no consequences on the activity of antibodies in other in vitro and in vivo tests.
In example 3, the effect of anti-c-Met Mabs on phosphorylation was assessed with dosed supernatants from each hybridoma to be evaluated. The test has been performed again with purified 11E1 and 224G11 Mabs that have been evaluated either at a final concentration of 30 μg/ml (200 nM) or at a dose range from 0.0015 to 30 μg/ml (0.01-200 nM) in order to determine the IC50 of each antibody. The protocol used is the same as the one described in example 3.

[2] = system: SK-HEP-1 cells; test: Scatter assay; assay type: cell-based; conditions: SK-HEP-1, antibody 10 μg/ml; for inhibitory effect on cell scattering in presence of HGF: HGF 100 ng/ml; for agonist effect on cell scattering, alone: no HGF
Method: SK-HEP-1 cells were seeded at low density (1·10^4 cells/well) in a 24-well plate in DMEM with 10% FCS and grown for 24 hours before addition, at the same time, of HGF (100 ng/ml) and antibodies to be tested (10 μg/ml). After 72 hours incubation, colonies were fixed and stained with 0.2% crystal violet in methanol and assessed for scattering visually. Each tested condition was tested as a triplicate and 3 independent experiments were performed.

[3] = biological target: T2, HGF-cMet (Homo sapiens, UniProt P08581); test: HGF-cMet competition assay (ELISA); assay type: binding; conditions: purified murine antibodies
T2 construct: recombinant c-Met-Extra-Cellular Domain (ECD) fused to an human IgG Fc domain
T2 sequence (P08581 25-932 limits assumed): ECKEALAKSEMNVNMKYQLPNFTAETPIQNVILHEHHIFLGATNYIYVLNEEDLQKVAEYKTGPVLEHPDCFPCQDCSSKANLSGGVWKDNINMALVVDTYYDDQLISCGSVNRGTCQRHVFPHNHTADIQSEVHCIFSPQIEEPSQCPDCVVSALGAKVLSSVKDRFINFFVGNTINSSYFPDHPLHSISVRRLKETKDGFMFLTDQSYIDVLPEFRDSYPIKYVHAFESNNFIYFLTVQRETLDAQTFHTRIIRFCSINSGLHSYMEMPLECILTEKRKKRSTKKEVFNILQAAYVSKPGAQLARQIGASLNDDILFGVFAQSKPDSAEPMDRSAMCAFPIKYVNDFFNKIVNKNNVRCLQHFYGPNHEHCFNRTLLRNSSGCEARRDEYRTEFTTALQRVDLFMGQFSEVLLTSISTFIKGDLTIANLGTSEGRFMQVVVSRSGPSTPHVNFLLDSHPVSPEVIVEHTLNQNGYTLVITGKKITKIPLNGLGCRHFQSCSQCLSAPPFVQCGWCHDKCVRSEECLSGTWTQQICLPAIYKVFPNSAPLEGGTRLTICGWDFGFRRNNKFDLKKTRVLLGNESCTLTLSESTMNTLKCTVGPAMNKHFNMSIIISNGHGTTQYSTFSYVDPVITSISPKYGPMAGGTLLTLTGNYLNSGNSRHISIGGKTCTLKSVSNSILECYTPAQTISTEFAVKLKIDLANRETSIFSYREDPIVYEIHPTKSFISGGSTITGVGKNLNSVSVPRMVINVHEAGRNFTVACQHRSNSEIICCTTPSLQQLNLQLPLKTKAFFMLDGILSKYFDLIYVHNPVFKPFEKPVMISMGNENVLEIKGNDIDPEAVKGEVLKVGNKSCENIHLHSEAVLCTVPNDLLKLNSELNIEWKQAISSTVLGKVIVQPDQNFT
Excerpt: FIG. 54: HGF-cMet competition assay. In this ELISA-based assay, recombinant Fc-cMET residual binding to plastic coated HGF in the presence of purified murine monoclonal antibodies 11E1, 224G11 and 227H1 was detected with […] and measured at 450 nm;
FIG. 58: HGF-cMet competition assay of 227H1 murine and recombinant antibodies. In this ELISA-based assay, recombinant Fc-cMet residual binding to plastic coated HGF in the presence of the different forms of the 227H1 antibody was detected with a biotinylated unrelated anti-cMet antibody. Purified murine 227H1 monoclonal antibody, chimeric and HZ4VH-derived humanized 227H1-derived recombinant antibodies were tested and compared for their abilities to compete with HGF-cMet binding when measured at 450 nm;
Humanization of the anti-cMet antibodies were performed independently for each chain and sequentially, regarding to the analysed amino acids in each variable domain. The humanization process was evaluated in a first attempt in an ELISA-based binding assay to recombinant Fc-cMet; binding activities the humanized antibodies being compared to the recombinant chimeric antibody. In a second attempt, anti-cMet humanized antibodies were evaluated for their abilities to displace the Fc-cMet binding onto plastic-coated recombinant HGF; this competition assay allowing the direct comparison of murine, chimeric and humanized versions of the anti-cMet antibodies.
These two assays were used to characterize the recombinant chimeric and humanized versions of the murine anti-cMet antibodies. To this end, briefly, anti-cMet variable domains, either murine or humanized, were cloned into LONZA's pCONplus expression vectors series and recombinant IgG1/κ-derived antibodies were expressed in CHO cells. […] Both direct binding and HGF-competition assays were assessed to better characterize recombinant chimeric or humanized versions.

[4] = system: NCI-H441; test: In vivo combination of 224G11 and Docetaxel on NCI-H441 xenograft model; design: species or system Athymic nude mice; conditions: D11 to D35; Docetaxel 7.5 mg/kg i.p.
Method: NCI-H441 cells from ATCC were routinely cultured in RPMI 1640 medium, 10% FCS, 1% L-Glutamine. Cells were split two days before engraftment being in exponential phase of growth. Nine million NCI-H441 cells were engrafted to Athymic nude mice. […] Mice were treated i.p. either with a loading dose of 2 mg of 224G11 Mab/mouse and then twice a week with 1 mg of antibody/mouse or with 4 injections of Docetaxel (D5, D12, D19, D26) at 7.5 mg/kg. A third group administered with the combine treatment was also included. Docetaxel was given by i.p. injections. Tumor volume was measured twice a week and calculated by the formula: π/6×length×width×height and animal weights were monitored every day over the period of Docetaxel treatment. Statistical analysis was performed at each measured time using either a t-test or a Mann-Whitney test. […] Results are represented in FIG. 47.

[5] = system: U87-MG; test: In vivo combination of 224G11 and Temozolomide on U87MG xenograft model; design: species or system Athymic nude mice; conditions: D22 to D32; Temozolomide 5 mg/kg i.p.
Method: U87-MG cells from ATCC were routinely cultured in DMEM medium, 10% FCS, 1% L-Glutamine. Cells were split two days before engraftment being in exponential phase of growth. Five million U87-MG cells were engrafted to Athymic nude mice. […] Mice were treated i.p. either with a loading dose of 2 mg of 224G11 Mab/mouse and then twice a week with 1 mg of antibody/mouse or with 3 injections of Temozolomide (D19, D26, D33) at 5 mg/kg. A third group administered with the combine treatment was also included. Temozolomide was given by i.p. injections. Tumor volume was measured twice a week and calculated by the formula: π/6×length×width×height and animal weights were monitored every day over the period of Temozolomide treatment. Statistical analysis was performed at each measured time using either a t-test or a Mann-Whitney test. […] Results are represented in FIG. 48.

Molecule | IC50, c-Met phosphorylation [1] | agonist effect on c-Met phosphorylation, added alone [1] | antagonist effect on c-Met phosphorylation in presence of HGF [1] | inhibitory effect on cell scattering in presence of HGF [2] | agonist effect on cell scattering, alone [2] | HGF-cMet binding competition activity [3] | anti-tumor activity compared to the control group [4] | anti-tumor activity compared to the control group [5] | maximum of HGF binding displacement ([3]; at high antibody concentration)
B1 | nanomolar | no agonist effect | 87% | very significant inhibitory effect | No agonistic effect | moderate, not full but reliable competitive activity |  |  | 
B2 | nanomolar | no agonist effect | 75% | very significant inhibitory effect | No agonistic effect |  | significant anti-tumor activity | significant anti-tumor activity | 100%
